Assay results taken from paper doi:10.1101/2023.04.01.535177 (bioRxiv, 2023).
One block for each molecule: values may come before it.

Assays:
Assay in all cases: SEC
[1] = molecular target: Parsonsia alboflavescens homospermidine synthase, double mutant V269I D273N (IXXXN motif) (Parsonsia alboflavescens)
[2] = molecular target: Parsonsia alboflavescens homospermidine synthase, single mutant D273N (VXXXN motif) (Parsonsia alboflavescens)
[3] = molecular target: Parsonsia alboflavescens homospermidine synthase, single mutant V269I (IXXXD motif) (Parsonsia alboflavescens)
[4] = molecular target: the molecule itself

stoichiometry N [1]: 4
Molecule: Parsonsia alboflavescens homospermidine synthase, double mutant V269I D273N (IXXXN motif) (enzyme)

stoichiometry N [3]: 4
Molecule: Parsonsia alboflavescens homospermidine synthase, single mutant V269I (IXXXD motif) (enzyme)

Second part, the molecule before the results:

Molecule: Parsonsia alboflavescens homospermidine synthase, single mutant D273N (VXXXN motif) (enzyme)
stoichiometry N [2]: 4

B1: Parsonsia alboflavescens homospermidine synthase, wild type (VXXXD motif) (enzyme, UniProt A0A2P1M5T0 1-374, looked up)
chain: MGDDAIRQNFLDSARSNVFKALESLEGCKKIKGYDFNKGVNHRELLLSMVSTGFQASNLGDAIDVINQMRAWKLSDEPIPENCKEQEKDPKFRDSVRCKVFLGFTSNLISSGVRETIRYLAQHRMIDVLVTTAGGIEEDFIKCLAPTFKGDFSLPGAALRSKGLNRIGNLLVPNDNYCKFEDWIMPIFDKMLEEQLEEKVLWTPSRVIARLGKEINDESSYLYWAYKNKIPVYCPAITDGSIGDMLYFHSFRNPASLIVDIVQDVRNMDDEIVLAGLRKTGIIILGGGLPKHHICNANMMRNGADFAVFINTAQEFDGSDSGARPDEAISWGKIRSTAKHVKVHCDATIAFPLLVAETFAKGKSTWTKYLGYIY
stoichiometry N [4]: 4
